Assays:
[1] = molecular target: T1, recombinant human IL1RAP protein, extracellular domain His-tagged (Sino Biological, Cat #10121-H08H) (human, UniProt Q9NPH3 21-367); experiment: Octet BLI; mAb captured on anti-mouse IgG Fc sensor; huIL1RAP-His analyte
T1 construct: extracellular domain; Bought protein; The Octet analyte is printed as huIL1RAP-His (Sino Biological, lot MB08MA1301) without a catalogue number; also called huIL1RAP-His; hIL1RAP; not shown: His tag
T1 sequence (looked up): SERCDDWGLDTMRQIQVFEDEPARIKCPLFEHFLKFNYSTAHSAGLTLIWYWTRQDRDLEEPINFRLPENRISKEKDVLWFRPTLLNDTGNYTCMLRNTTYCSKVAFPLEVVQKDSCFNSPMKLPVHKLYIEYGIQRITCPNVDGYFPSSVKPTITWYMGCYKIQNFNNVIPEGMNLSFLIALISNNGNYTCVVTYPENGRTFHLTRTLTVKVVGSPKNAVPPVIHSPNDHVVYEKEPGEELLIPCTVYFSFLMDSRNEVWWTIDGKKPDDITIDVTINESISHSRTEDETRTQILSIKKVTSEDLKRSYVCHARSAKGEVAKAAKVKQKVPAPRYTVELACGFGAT
Protocol: (§1) Antibodies were diluted in kinetics buffer (0.1% BSA, 0.02% Tween-20 and 0.05% NaN₃ in PBS) and loaded onto 16 channel anti-mouse IgG Fc capture sensors (AMC, Cat #2001073; Sartorius, Göttingen, Germany). Human, huIL1RAP-His (Sino Biological, lot: MB08MA1301), and monkey, cyIL1RAP-His (Lake Pharma, NY, USA; lot:16205819371) proteins were titrated starting from the highest concentration of 100 nM and followed by 50 nM and 25 nM. Purified antibodies were loaded at 5 μg/ml in kinetics buffer. The experimental parameters selected to determine the kinetic constants were Baseline for 60 s, Loading of antibody to sensor for 180 s, Association of analyte to antibody for 120 s, Dissociation for 1200 s and Regeneration in 10 mM Glycine pH 1.7 for 4×30 s.
(§2) Regeneration cycle tracking was selected for 12 cycles. Binding to human and cynomolgus IL1RAP was measured and KD (M) kinetics were calculated. Also, the disassociation rate (Kdis) (1/s) and association rate (Kon) (1/Ms) kinetics were calculated (data not shown).

[2] = molecular target: T2, IL1RAP on HEK-Blue IL1β / HEK-Blue IL33 reporter cells (UniProt Q9NPH3 21-570, limits assumed); experiment: cell-based or functional assay
T2 sequence (looked up): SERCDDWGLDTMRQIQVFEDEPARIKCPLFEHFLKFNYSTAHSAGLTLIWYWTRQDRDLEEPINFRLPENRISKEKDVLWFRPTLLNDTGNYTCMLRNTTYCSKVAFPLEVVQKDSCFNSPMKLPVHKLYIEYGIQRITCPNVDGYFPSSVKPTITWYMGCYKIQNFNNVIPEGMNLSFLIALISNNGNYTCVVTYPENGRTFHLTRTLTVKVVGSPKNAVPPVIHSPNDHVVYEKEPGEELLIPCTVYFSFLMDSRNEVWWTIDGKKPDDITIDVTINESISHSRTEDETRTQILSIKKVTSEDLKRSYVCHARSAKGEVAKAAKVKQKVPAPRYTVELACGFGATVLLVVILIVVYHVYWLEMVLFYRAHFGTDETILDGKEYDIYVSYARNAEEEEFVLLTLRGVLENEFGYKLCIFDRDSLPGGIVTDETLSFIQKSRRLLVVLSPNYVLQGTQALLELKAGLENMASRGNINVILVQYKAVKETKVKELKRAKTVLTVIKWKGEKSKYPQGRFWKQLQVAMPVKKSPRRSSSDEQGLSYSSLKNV

[3] = molecular target: T2, IL1RAP on HEK-Blue IL1β / HEK-Blue IL33 …; experiment: cell-based or functional assay; remark: listed apart in the source
[4] = molecular target: T3, recombinant mouse IL1RAP protein (Sino Biological, Cat #52657-M08H) (mouse, UniProt Q61730 21-359); experiment: cell-free ELISA, mouse IL1RAP coated; data not shown
T3 construct: Bought protein
T3 sequence (looked up): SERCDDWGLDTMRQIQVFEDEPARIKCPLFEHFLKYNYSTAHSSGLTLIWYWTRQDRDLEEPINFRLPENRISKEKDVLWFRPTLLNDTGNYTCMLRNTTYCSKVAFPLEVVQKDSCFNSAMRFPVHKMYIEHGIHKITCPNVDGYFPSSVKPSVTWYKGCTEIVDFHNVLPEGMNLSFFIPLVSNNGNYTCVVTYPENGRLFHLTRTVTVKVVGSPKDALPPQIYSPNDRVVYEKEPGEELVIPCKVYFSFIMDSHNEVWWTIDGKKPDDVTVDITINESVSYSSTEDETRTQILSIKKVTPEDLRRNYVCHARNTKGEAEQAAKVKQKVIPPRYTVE
Protocol: Recombinant human or mouse IL1RAP proteins (Sino Biological, Beijing, China; Cat #10121-H08H and Sino Biological, Cat #52657-M08H respectively) were diluted in PBS, pH 7.4 at concentration of 1 μg/ml, coated on high-binding 384-well clear plates and incubated overnight at 4° C. Following, plates were washed 3× with 0.05% Tween-20 in PBS, pH 7.5 and then blocked with 1% BSA in PBS for 1 hour at room temperature. After 3× washes, wells were incubated with each antibody at the highest concentration of 100 nM followed by seven serial half log dilutions (in 1% BSA and 0.05% Tween-20 in PBS) for 1 hour at room temperature. Plates were then washed 3× and incubated with […] detection antibody (Medna, TX, USA; Cat #D8212, 0.5 μg/ml diluted in 0.02% Tween-20 in PBS). After 5× washes, Supersignal ELISA Pico substrate (Thermofisher, MA, USA; Cat #37069) was applied to wells and chemiluminescent signal was read on Sprectramax L for 200 ms/well. Similarly, detection with specific κ and λ antibodies was conducted to define light chain isotyping.

[5] = molecular target: T4, cyIL1RAP-His (Lake Pharma) (cynomolgus monkey, UniProt A0A2K5X5J5 21-367); experiment: Octet BLI; mAb captured on anti-mouse IgG Fc sensor; cyIL1RAP-His analyte
T4 construct: Bought protein (Lake Pharma, lot 16205819371); also called cynomolgus IL1RAP; monkey IL1RAP; not shown: His tag
T4 sequence: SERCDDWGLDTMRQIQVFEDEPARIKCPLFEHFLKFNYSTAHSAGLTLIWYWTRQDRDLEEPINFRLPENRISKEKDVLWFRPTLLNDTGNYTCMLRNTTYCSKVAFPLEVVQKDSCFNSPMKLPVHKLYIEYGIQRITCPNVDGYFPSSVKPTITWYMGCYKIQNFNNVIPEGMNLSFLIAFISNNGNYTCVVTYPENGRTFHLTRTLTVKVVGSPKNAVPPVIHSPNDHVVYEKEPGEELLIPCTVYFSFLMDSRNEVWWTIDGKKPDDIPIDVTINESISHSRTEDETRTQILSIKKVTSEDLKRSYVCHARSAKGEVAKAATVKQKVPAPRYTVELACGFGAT
Protocol: as §1, §2

Row | Binder | Kd [1] | Response [1] | koff [1] | kon [1] | IC50, HEK-BlueIL1β NFκB Reporter Assay [2] | Max % Inhibition at 200 nM, HEK-BlueIL1β NFκB Reporter Assay [2] | IC50, HEK-BlueIL33 NFκB Reporter Assay [3] | Max % Inhibition at 200 nM, HEK-BlueIL33 NFκB Reporter Assay [3] | binding result [4] | Kd [5] | Response [5] | koff [5] | kon [5]
1 | STLX2001E (antibody, V domains shown, Purified from hybridoma of immunized Alivamab mice; intact IgG by SEC and SDS-PAGE; captured on anti-mouse IgG Fc sensors in Octet; kappa light chain; also called 74804_01E23A) VH: QVQLVQSGAEVKKPGASVKVSCKASGYTFTGYYMHWVRQAPGQGLEWMGWLNPNSGGTDYVQKFQGRVTMTRDTSISTAYMELSRLRSDDTAVYYCARTLYYYGMDVWGQGTTVTVSS VL: not shown | 2.34 nM | 0.308 | 0.000391 s⁻¹ | 167000 M⁻¹ s⁻¹ | 7.37e-10 M (implied; unit not printed) | 98% | 2.49e-09 M (implied; unit not printed) | 80% | no binding (tested: 100 nM) | 4.54 nM | 0.265 | 0.000863 s⁻¹ | 190000 M⁻¹ s⁻¹
2 | STLX2029 (antibody, V domains shown, Purified from hybridoma of immunized Alivamab mice; intact IgG; captured on anti-mouse IgG Fc sensors in Octet; kappa light chain; also called 74804_29D13A) VH: QVQLLQSGAEVKKPGSSVKVSCKASGGTFSIYAIDWVRQAPGQGLEWMGGIIPIFGTANSAQKFQGRVTITADKSTSTAYMELSSLRSEDTAVYYCARNGATSDAFDMWGQGTMVTVSS VL: EIVLTQSPGTLSLSPGERATLSCRASLSVSSNYLAWFQQRPGQAPRLLIYGVSRRATGIPDRFSGSGSGTDFTLTISRLEPEDFAVYYCQQYGSSPLTFGGGTKVEIK | 1.07 nM | 0.291 | 0.000361 s⁻¹ | 336000 M⁻¹ s⁻¹ | 1.85e-09 M (implied; unit not printed) | 99% | 8.75e-09 M (implied; unit not printed) | 86% | no binding (tested: 100 nM) | 1.97 nM | 0.327 | 0.00065 s⁻¹ | 330000 M⁻¹ s⁻¹
3 | STLX2007 (antibody, V domains shown, Purified from hybridoma of immunized Alivamab mice; intact IgG; captured on anti-mouse IgG Fc sensors in Octet; kappa light chain; also called 74804_07K10A) VH: QVQLLQSGAEVKKPGSSVKVSCRASGGTFSIYAIDWVRQAPGQGLEWMGGIIPISGTENSAQNFQDRITITADKSTNTAYMELSSLRSEDTAVYYCARNGATSDAFDIWGQGTMVTVSS VL: EIVLTQSPGTLSLSPGERATLSCRASLSVSSNYLAWFQQRPGQAPRLLIYGVSRRATGIPDRFSGSGSGTDFTLTISRLEPEDFAVYYCQQYGSSPLTFGGGTKVEIK | 0.596 nM | 0.247 | 0.000234 s⁻¹ | 392000 M⁻¹ s⁻¹ | 3.19e-09 M (implied; unit not printed) | 100% | 6.62e-09 M (implied; unit not printed) | 79% | no binding (tested: 100 nM) | 0.751 nM | 0.273 | 0.000283 s⁻¹ | 377000 M⁻¹ s⁻¹
4 | STLX2051 (antibody, V domains shown, Purified from hybridoma of immunized Alivamab mice; intact IgG; captured on anti-mouse IgG Fc sensors in Octet; kappa light chain; also called 74804_51C10A) VH: QVQLLQSGAEVKKPGSSVKVSCKASGGTFNIYAIDWVRQAPGQGLEWMGGIIPIFGTANSAQKFQGRVTITADKSTNTAYMELSSLRSEDTAVYYCARNGATSDAFDIWGQGTMVTVSS VL: EIVLTQSPGTLSLSPGERATLSCRASQSVSSNYLAWFQQRPGQAPRLLIYGVSRRATGIPDRFSGSGSGTDFTLTISRLEPEDFAVYYCQQYGSSPLTFGGGTKVEIK | 0.875 nM | 0.237 | 0.000301 s⁻¹ | 344000 M⁻¹ s⁻¹ | 2.5e-09 M (implied; unit not printed) | 99% | 1.3e-08 M (implied; unit not printed) | 77% | no binding (tested: 100 nM) | 1.41 nM | 0.265 | 0.000459 s⁻¹ | 326000 M⁻¹ s⁻¹
5 | STLX2025 (antibody, V domains shown, Purified from hybridoma of immunized Alivamab mice; intact IgG; captured on anti-mouse IgG Fc sensors in Octet; kappa light chain; also called 74804_25H09A) VH: QVQLVQSGAEVKKPGSSVKVSCKASGDTFSNYAITWVRQAPGQGLEWIVGFSPIFGTANYAQKFQGRVTITADKSTSTAYMELSSLISEDTAVYYCAWGSGNFNWFDPWGQGTLVTVSS VL: AIRMTQSPSSFSASTGDRVTITCRASQGISSYLAWYQQKPGKAPKLLIYAASTLQSGVPSRFSGSGSGTDFTLTISSLQSEDFATYYCQQYYSYPLTFGGGTKVEIK | 2.18 nM | 0.26 | 0.000337 s⁻¹ | 154000 M⁻¹ s⁻¹ | 1.77e-09 M (implied; unit not printed) | 100% | 6.55e-09 M (implied; unit not printed) | 73% | no binding (tested: 100 nM) | 2.09 nM | 0.263 | 0.000297 s⁻¹ | 142000 M⁻¹ s⁻¹
6 | STLX2005 (antibody, V domains shown, Purified from hybridoma of immunized Alivamab mice; intact IgG; captured on anti-mouse IgG Fc sensors in Octet; kappa light chain; also called 74804_05B24A) VH: EVQLVDSGGGLVKPGGSLRLSCAATGFTFSNVWMSWVRQGSGKGLEWVGRIKSKTDGGTIDYAAPVKGRFTISRDDPKNTLYLQMNSLKTEDTAVYYCTTGELLGFDYWGQGTLVTVSS VL: DIVMTQSPLSLPVTPGEPASISCRSGQSLLHNNGFNCLAWYLQKPGQSPQLLIYLGSNRASGVPDRFSGSGSGTDFTLKISRVEAEDVGVFYCMQTLQTPITFGQGTRLEIK | 1.67 nM | 0.268 | 0.000491 s⁻¹ | 294000 M⁻¹ s⁻¹ | 4.46e-10 M (implied; unit not printed) | 99% | 2.72e-09 M (implied; unit not printed) | 85% | no binding (tested: 100 nM) | 2.1 nM | 0.3 | 0.000563 s⁻¹ | 268000 M⁻¹ s⁻¹

Source: patent publication US20240392013A1 (STELEXIS THERAPEUTICS, published 2024)
